Experimental findings from patent US5856161 are described below.

Data set [1] has as its target p60-Tumor Necrosis Factor Receptor Associated Kinase (p60TRAK). Description: U937 lysate depleted with p13^suc1 -agarose or GST beads, supernatant precipitated with GST-p60Δ15, kinase assay with histone H1.
For data set [2] the target is unchanged.
Data set [3] concerns the target T1, p13^suc1 -agarose (UniProt P08463).
T1 sequence: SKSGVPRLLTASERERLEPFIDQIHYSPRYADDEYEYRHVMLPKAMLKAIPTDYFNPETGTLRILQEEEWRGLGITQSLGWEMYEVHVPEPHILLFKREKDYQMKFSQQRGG
Description: U937 lysate depleted with p13^suc1 -agarose or GST beads, supernatant precipitated with GST-p60Δ8 or GST-p60Δ15, kinase assay with Rb^110.

In data set [4] the target is GST-p60Δ5 (Homo sapiens (Human)) (UniProt P19438).
For data set [5], the target named is GST-p60Δ4 (Homo sapiens (Human)) (UniProt P19438).

For the substance p13^suc1 -agarose (from UniProt P08463), the depletion of p60TRAK activity in data set [1] amounted to 50%.
p49^WEE1 (from UniProt P30291) (enzyme): in data set [2], the histone kinase activity of p60TRAK was > 70%.
“p60-Tumor Necrosis Factor Receptor Associated Kinase (p60TRAK)”: the “reduction of Rb^110 phosphorylation by p60TRAK after depletion” value in data set [3] was “phosphorylation of the retinoblastoma protein (Rb^110) by p60TRAK after depletion with p13^suc1 -agarose was reduced by greater than 60%”.
With “p60-Tumor Necrosis Factor Receptor Associated Kinase (p60TRAK) (enzyme)”, the phosphorylation in an in vitro kinase assay in data set [4] and in data set [5] was 50% each time.
